19 molecules from patent US20140302063A1 (SECRETARY OF STATE FOR HEALTH, published 2014) can be followed below.

The target in test [1] is recombinant H5 A/Vietnam/1203/04 (H5N1) (Influenza A virus A/Vietnam/1203/04 (H5N1)). In words: SPR, single cycle kinetics, HA immobilised. (Surface plasmon resonance follows binding to a sensor surface in real time, without labels.)
The target of test [2] is T1, recombinant H2 A/Japan/305/1957 (H2N2) (Influenza A virus A/Japan/305/1957 …, UniProt P03451 16-525). Description: SPR, single cycle kinetics.
For test [3], the target named is Recombinant haemagglutinin HA1 domain (18-344) (A/California/06/09) H1N1 (Influenza A virus A/California/06/09 (H1N1)). Description: SPR, single cycle kinetics, HA1 domain immobilised.
Test [4] addresses full length recombinant H1 residues 18-530 derived from A/California/06/09 (Influenza A virus A/California/06/09 (H1N1)). Description: SPR, single cycle kinetics, HA immobilised.
Test [5] addresses recombinant H9 A/HongKong/1073/99 (H9N2) (Influenza A virus A/HongKong/1073/99 (H9N2)). Description: SPR, single cycle kinetics, HA immobilised.
Test [6] deals with T1, recombinant H2 A/Japan/305/1957 (H2N2). Description: SPR, single cycle kinetics, HA immobilised.

What is called Kd is the equilibrium constant for the complex coming apart.

B1: R1a-H6 (VHH)
VHH: QVQLVESGGGLVQAGDSLRLSCTASVLTFSLYRVGWFRQAPGKEREFVAAIDWGDGPTTYADSVKGRFTISRDNAERTAYLQINSLKPEDTAVYYCGAGNTGSSDRSSSYVHWGQGTQVTVSS
As to B1, the Kd in test [1] was found to be 241 nM. Also, the binding result in test [2] is “no binding (tested: 100 nM)”.

B2: R1a-F5 (VHH)
VHH: QLQLVESGGGLVQVGGSLRLSCAASGFPFDGYAIAWFRQAPGKEREGVSCRASDGNTYYAESLKGRLTMSTDNAKNTVYLQMNSLKPEDTAVYYCAAASWVASLWSPSEYDYWGQGTQVTVSS
As for B2, the results for the Kd in test [3] and in test [4] were 6.1 nM and 9.2 nM, respectively. The binding result in test [2] is “no binding (tested: 100 nM)”.

B3: R2b-E8 (VHH)
VHH: QVQLVESGGGLVQPGGSLRLSCAASGSFFSRYRMGWYRQAPGEQRELVAGITYDDSTNYAGSVKGRFTISRDNAKNTVHLQMNSLKPEDTAVYYCNLNPPGNLYWGQGTQVTVSS
For B3, the dissociation constant (Kd) in test [5] was found to be 87 nM; in test [4], 8.2 nM; in test [1], 3.6 nM. Also, in test [2], the binding result was “no binding (tested: 100 nM)”.

B4: R1a-E6 (VHH)
VHH: QVQLVESGGGLVQPGGSLRLSCAASGFTLGAYAIAWFRQAPGKEREGVSCISPSDSFTEYGDSVKGRFTVSRDNAKNTVYLQMNSLQPEDTAVYYCAADPVCTAGWYRPSRFDLWGQGTQVTVSS
With B4, the Kd worked out at 36 nM in test [3] and 22.8 nM in test [4]. For the same molecule, in test [2], the binding result was “no binding (tested: 100 nM)”.

B5: R2a-G9 (VHH)
VHH: QVQLVESGGGLVQPGGSLRLSCAASDNIFSFYTMGWYRQSPGKERELVAVIGNGGNTNYADSVKGRFTISRDNGKNKAHLQMNSLKPEDTAVYYCKASGPGGVEVWGQGTQVTVSS
For the molecule B5, the Kd in test [3] was determined as 69 nM; in test [4], 62 nM. The binding result in test [2] is listed as “no binding (tested: 100 nM)”.

B6: R2a-B9 (VHH)
VHH: QVQLVESGGGLVQPGGSLRLSCAASGSAFSINAMGWYRQAPGEEREFVAAITAGGNTYYADSAKARFTISRDNAKNMLYLQMNSLKPEDTAMYYCAATKAFGIATITADYELWGQGTQVTVSS
For B6, the Kd in test [4] is 0.2 nM. The binding result in test [2] is reported as “no binding (tested: 100 nM)”.

B7: R2a-H9 (VHH)
VHH: QVQLVESGGGLVQPGGSLRLSCAASTNIASFYTMGWYRQTPGQQRDVVAVIGNGGNTNYADSVKGRFTISRDGAKNTAHLQMNSLKPEDTDVYYCKASGPGGVILWGQGTQVTVSS
B7: the Kd worked out at 4.7 nM in test [3], 2.8 nM in test [4] and 40 nM in test [6].

B8: R1a-E5 (VHH)
VHH: QLQLVESGGGLVQPGGSLRLSCTASGFSLDNYAIGWFRRAPGEEREGVSFITSTSAVTKYADSVKGRFTISRDNAKNTVYLQMTSLKPEDTAVYYCAGTRWVPTMKADEYNYWGQGTQVTVSS
B8: in test [4], the equilibrium dissociation constant (Kd) was determined as 0.6 nM. Also, the binding result in test [2] is “no binding (tested: 100 nM)”.

B9: R2a-G8 (VHH)
VHH: QLQLAESGGGLVQAGGSLRLSCAASGSTLNNNAIGWFRQAPGKEREGVSCMNSRDGTTNYADSVKGRFTISRDVAKNTVYLQMNSLKPEDTAVYFCAVKGFAPFLIGCPWGKAEYDYWGQGTQVTVSS
For B9, the Kd in test [3] amounted to 7.7 nM; in test [4] it was 3.1 nM; in test [1] it was 9 nM; in test [6], 39 nM.

B10: R1a-C5 (VHH)
VHH: QVQLVESGGGLVQPGGSLRLSCAASNDIFSFYTMGWYLQAIGKQREPVAVIGNGGNTNYAESVKGRFTISRDGAKNTAYLQMNSLKPEDTAVYYCMASGPGGLNVWGQGTQVTVSS
B10: the Kd in test [3] was 734 nM; in test [5], 22 nM; in test [4], 1.9 nM; in test [1], 2.7 nM; in test [6], 67 nM.

B11: R1a-G5 (VHH)
VHH: QLQLVESGGGLVQPGGSLRLSCAASGSISRIVTMGWYRQASGKERELVAVIGNYGNTNYADSVKGRFTVSRDNAKDTAYLQMNGLNVEDTAIYYCKTSTTTPPYEYWGQGTQVTVSS
As to B11, the Kd in test [3] came to 26 nM; in test [4] it was 24 nM. The binding result in test [2] is on record as “no binding (tested: 100 nM)”.

B12: R1a-F4 (VHH)
VHH: QVQLVESGGGLVQPGGSLRLSCAASGSISRIVTMGWYRQGPGKERELVAVIGNYGNTNYADSVKGRFTVSRDNAKDTAYLQMNNLNVEDTAMYYCKCSTTTPPHEFWGQGTQVTVSS
B12: the Kd was 4.7 nM in test [3] and 7.3 nM in test [4]. Moreover, the binding result in test [2] is on record as “no binding (tested: 100 nM)”.

B13: R2b-D9 (VHH)
VHH: QVQLVESGGGLVQPGGSLRLSCLASGSAFSLYTMGWYRQAPGNQRELVAAITSGESTNYADSVKGRFTISRDNAKNTVYLQMNSLKPEDTAVYYCNADPLSTGWGQYSYWGQGTQVTVSS
For B13, the Kd was found to be 59 nM in test [5], 0.4 nM in test [4] and 1.6 nM in test [1]. Also, the binding result in test [2] is given as “no binding (tested: 100 nM)”.

B14: R2a-E8 (VHH)
VHH: QLQLVESGGGLVQPGGSLRLSCTASGDIFVMYMIDWYRQAPGKQRELVASIDGRGTPMYADSVKGRFTISRDNAKNTVYLQMNSLKPEDTAVYSCHAKSPLVDNEYWGQGTQVTVSS
As for B14, the values for the Kd in test [4] and in test [6] were 0.8 nM and 34 nM, respectively.

B15: R1a-G6 (VHH)
VHH: QVQLVESGGGLVQSGGSLRLSCAASGSMSRIITMGWYRQAPGMERELVAVIGNNDNTVYGDSVQGRFTVSRDNAKNTAYLQMNSLNAEDTAMYYCKISTLTPPHEYWGQGTQVTVSS
In the case of B15, the dissociation constant Kd in test [3] stood at 4.6 nM; in test [4] it was 4.4 nM. Moreover, in test [2], the binding result was “no binding (tested: 100 nM)”.

B16: R2a-F9 (VHH)
VHH: QVQLVESGGGLVQPGGSLRLSCSASGSISSIVTMGWYRQAPGKERELVAVIGNYGNTNYADSVKGRFTVSRDNAKNTVYLQMNSLNVEDTAMYVCKFSSTVAPHEYWGQGTQVTVSS
Take B16: the Kd in test [3] came to 79 nM; in test [4], 60 nM. Moreover, the binding result in test [2] is “no binding (tested: 100 nM)”.

B17: R1a-A5 (VHH)
VHH: QVQLVESGGGLVQPGGSLRLSCSASGSAVLFSTYPMSWYRQAPGKQRELVAAVTTDGSTSYADYAKGRFTISRDNAKNTVYLQMNSLKPEDTAVYYCNARDGFFNRYDYWGQGTQVTVSS
Consider B17, for which the Kd worked out at 3.3 nM in test [4], 0.7 nM in test [1] and 186 nM in test [6].

B18: R2b-D8 (VHH)
VHH: QVQLVESGGGLVQPGGSLRLSCAASGFTFSWYDVGWYRRAPGKERELVADIASTRGTTNYADSVKGRFTISRDNAKNSVYLQMNSLKPEDTAVYYCNTRRDWRDYWGQGIQVTVSS
Take B18: the binding result in test [2] is on record as “no binding (tested: 100 nM)”.

B19: R1a-B6 (VHH)
VHH: QVQLVESGGGLVQPGGSLRLSCAASGSFFSRYRMGWYRQAPGEQRELVASIAYDGSTSYADPVKGRFTISRDNANTVHLQMYSLKPDDTAVYYCNLDPPGILYWGQGTQVTVSS
In the case of B19, the Kd in test [5] was determined as 7.6 nM; in test [4], 0.7 nM; in test [1], 1.7 nM; in test [6] it was 43 nM.
